Results taken from patent US20240100162A1 (published 2024).

T1: MAGE-B2 peptide on HLA-A*02:01 (human)
T1 peptide: GVYDGEEHSV


Target: T1, MAGE-B2 peptide on HLA-A*02:01
Assay: multimer staining

Row | Binder | binding result
1 | TCR7 (TCR, V domains shown) Valpha: GQNIDQPTEMTATEGAIVQINCTYQTSGFNGLFWYQQHAGEAPTFLSYNVLDGLEEKGRFSSFLSRSKGYSYLLLKELQMKDSASYLCAVRRLGGYQKVTFGTGTKLQVIP Vbeta: GAGVSQSPSNKVTEKGKDVELRCDPISGHTALYWYRQRLGQGLEFLIYFQGNSAPDKSGLPSDRFSAERTGESVSTLTIQRTQQEDSAVYLCASSLVTGSSYNEQFFGPGTRLTVL | recognises
2 | TCR11 (TCR, V domains shown) Valpha: GEDVEQSLFLSVREGDSSVINCTYTDSSSTYLYWYKQEPGAGLQLLTYIFSNMDMKQDQRLTVLLNKKDKHLSLRIADTQTGDSAIYFCAEKSITSYDKVIFGPGTSLSVIP Vbeta: DVKVTQSSRYLVKRTGEKVFLECVQDMDHENMFWYRQDPGLGLRLIYFSYDVKMKEKGDIPEGYSVSREKKERFSLILESASTNQTSMYLCASTRRGTYGYTFGSGTRLTVV | recognises
3 | TCR6 (TCR, V domains shown) Valpha: AQTVTQSQPEMSVQEAETVTLSCTYDTSENNYYLFWYKQPPSRQMILVIRQEAYKQQNATENRFSVNFQKAAKSFSLKISDSQLGDTAMYFCAFFNAGKSTFGDGTTLTVKP Vbeta: EAGVAQSPRYKIIEKRQSVAFWCNPISGHATLYWYQQILGQGPKLLIQFQNNGVVDDSQLPKDRFSAERLKGVDSTLKIQPAKLEDSAVYLCASTVGGGPYGYTFGSGTRLTVV | recognises

Next, values leading:

Row | binding result | Binder
4 | recognises | TCR10 (TCR, V domains shown) Valpha: AQSVAQPEDQVNVAEGNPLTVKCTYSVSGNPYLFWYVQYPNRGLQFLLKYITGDNLVKGSYGFEAEFNKSQTSFHLKKPSALVSDSALYFCAVRDNARLMFGDGTQLVVKP Vbeta: SAVISQKPSRDICQRGTSLTIQCQVDSQVTMMFWYRQQPGQSLTLIATANQGSEATYESGFVIDKFPISRPNLTFSTLTVSNMSPEDSSIYLCSVGPSGHTGYTFGSGTRLTVV
5 | recognises | TCR8 (TCR, V domains shown) Valpha: AQKITQTQPGMFVQEKEAVTLDCTYDTSDQSYGLFWYKQPSSGEMIFLIYQGSYDEQNATEGRYSLNFQKARKSANLVISASQLGDSAMYFCAMRGPTSYGKLTFGQGTILTVHP Vbeta: not shown
6 | recognises | TCR5 (TCR, V domains shown) Valpha: KNEVEQSPQNLTAQEGEFITINCSYSVGISALHWLQQHPGGGIVSLFMLSSGKKKHGRLIATINIQEKHSSLHITASHPRDSAVYICAPGGNQFYFGTGTSLTVIP Vbeta: DAGITQSPRYKITETGRQVTLMCHQTWSHSYMFWYRQDLGHGLRLIYYSAAADITDKGEVPDGYVVSRSKTENFPLTLESATRSQTSVYFCASSGSNQPQHFGDGTRLSIL
